Data on one substance can be found in article PMC7883444.

The target in this assay is HRD1 (HMG-CoA reductase degradation protein 1, synoviolin) (UniProt Q86TM6). Put plainly: anti-Myc co-IP, anti-Flag blot. The settings on record: reference: WT Flag-PFKP; sites S386.

As to “PFKP (platelet isoform of phosphofructokinase) (from UniProt Q01813) Flag-PFKP S386A”, the “binding against the reference” value is on record as “stronger”.
